B1: KCNG1 (parent)
chain: AVNLSVSTLPSLREEEEQVRAHAP

Variants of: B1
Assay: protein stability index of a GFP-peptide fusion (GPS, HEK-293T) (PSI 1-6); higher = more stable
Settings: c terminus: a fixed tail appended
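Further: lentivirally expressed fusions sorted by FACS into six bins by GFP to DsRed ratio, PSI derived from sequencing read proportions per bin multiplied by bin number.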

In order of rising protein stability index:
1. AVNLSVSTLPSLREEEWQVRAHAP  3.08
2. AVNLSVSTLPSLREEEFQVRAHAP  3.23
3. AVNLSVSTLPSLREEIEQVRAHAP  3.27
4. AVNLSVSTLPSLREEWEQVRAHAP  3.38
5. AVNLSVSTLPSLRELEEQVRAHAP  3.42
6. AVNLSVSTLPSLREFEEQVRAHAP  3.52
7. AVNLSVSTLPSLREWEEQVRAHAP  3.52
8. AVNLSVSTLPSLRFEEEQVRAHAP  3.56
9. AVNLSVSTLPSLREEMEQVRAHAP  3.56
10. AVNLSVSTLPSLREEFEQVRAHAP  3.59
11. AVNLSVSTLPSLREEEYQVRAHAP  3.6
12. AVNLSVSTLPSLREEYEQVRAHAP  3.63
13. AVNLSVSTLPSLREYEEQVRAHAP  3.64
14. AVNLSVSTLPSLREELEQVRAHAP  3.82
15. AVNLSVSTLPSLRWEEEQVRAHAP  3.9
16. AVNLSVSTLPSLREIEEQVRAHAP  3.92
17. AVNLSVSTLPSLREEPEQVRAHAP  3.96
18. AVNLSVSTLPSLREVEEQVRAHAP  4.06
19. AVNLSVSTLPSLRMEEEQVRAHAP  4.11
20. AVNLSVSTLPSLREEELQVRAHAP  4.11
21. AVNLSVSTLPSLREETEQVRAHAP  4.12
22. AVNLSVSTLPSLRCEEEQVRAHAP  4.16
23. AVNLSVSTLPSLREEEEFVRAHAP  4.17
24. AVNLSVSTLPSLREEREQVRAHAP  4.18
25. AVNLSVSTLPSLREAEEQVRAHAP  4.2
26. AVNLSVSTLPSLREEECQVRAHAP  4.2
27. AVNLSVSTLPSLRECEEQVRAHAP  4.23
28. AVNLSVSTLPSLREEEIQVRAHAP  4.23
29. AVNLSVSTLPSLRREEEQVRAHAP  4.24
30. AVNLSVSTLPSLREECEQVRAHAP  4.26
31. AVNLSVSTLPSLREENEQVRAHAP  4.26
32. AVNLSVSTLPSLREEQEQVRAHAP  4.27
33. AVNLSVSTLPSLREESEQVRAHAP  4.27
34. AVNLSVSTLPSLREMEEQVRAHAP  4.29
35. AVNLSVSTLPSLRKEEEQVRAHAP  4.3
36. AVNLSVSTLPSLREEVEQVRAHAP  4.32
37. AVNLSVSTLPSLREEETQVRAHAP  4.32
38. AVNLSVSTLPSLRYEEEQVRAHAP  4.34
39. AVNLSVSTLPSLRIEEEQVRAHAP  4.37
40. AVNLSVSTLPSLREEEVQVRAHAP  4.38
41. AVNLSVSTLPSLRAEEEQVRAHAP  4.39
42. AVNLSVSTLPSLRVEEEQVRAHAP  4.39
43. AVNLSVSTLPSLREHEEQVRAHAP  4.42
44. AVNLSVSTLPSLREEEHQVRAHAP  4.43
45. AVNLSVSTLPSLREEEKQVRAHAP  4.43
46. AVNLSVSTLPSLRNEEEQVRAHAP  4.46
47. AVNLSVSTLPSLREEKEQVRAHAP  4.46
48. AVNLSVSTLPSLREEEMQVRAHAP  4.46
49. AVNLSVSTLPSLREEAEQVRAHAP  4.48
50. AVNLSVSTLPSLREEHEQVRAHAP  4.49
51. AVNLSVSTLPSLRLEEEQVRAHAP  4.51
52. AVNLSVSTLPSLRETEEQVRAHAP  4.52
53. AVNLSVSTLPSLRTEEEQVRAHAP  4.54
54. AVNLSVSTLPSLRGEEEQVRAHAP  4.56
55. AVNLSVSTLPSLRHEEEQVRAHAP  4.56
56. AVNLSVSTLPSLREGEEQVRAHAP  4.59
57. AVNLSVSTLPSLRENEEQVRAHAP  4.61
58. AVNLSVSTLPSLREEERQVRAHAP  4.61
59. AVNLSVSTLPSLREEESQVRAHAP  4.61
60. AVNLSVSTLPSLREEEGQVRAHAP  4.64
61. AVNLSVSTLPSLYEEEEQVRAHAP  4.67
62. AVNLSVSTLPSLREEGEQVRAHAP  4.67
63. AVNLSVSTLPSLREEEAQVRAHAP  4.67
64. AVNLSVSTLPSLREEEEHVRAHAP  4.67
65. AVNLSVSTLPSLREEEQQVRAHAP  4.69
66. AVNLSVSTLPSLREEEPQVRAHAP  4.71
67. AVNLSVSTLPSLREEEDQVRAHAP  4.73
68. AVNLSVSTLPSLREEENQVRAHAP  4.73
69. AVNLSVSTLPSLREEEEAVRAHAP  4.75
70. AVNLSVSTLPSLREREEQVRAHAP  4.76
71. AVNLSVSTLPSLLEEEEQVRAHAP  4.77
72. AVNLSVSTLPSLWEEEEQVRAHAP  4.77
73. AVNLSVSTLPSLREQEEQVRAHAP  4.79
74. AVNLSVSTLPSLRPEEEQVRAHAP  4.8
75. AVNLSVSTLPSLRESEEQVRAHAP  4.8
76. AVNLSVSTLPSLVEEEEQVRAHAP  4.81
77. AVNLSVSTLPSLREKEEQVRAHAP  4.82
78. AVNLSVSTLPSLKEEEEQVRAHAP  4.85
79. AVNLSVSTLPSLRQEEEQVRAHAP  4.87
80. AVNLSVSTLPSLQEEEEQVRAHAP  4.91
81. AVNLSVSTLPSLREPEEQVRAHAP  4.93
82. AVNLSVSTLPSLRDEEEQVRAHAP  4.96
83. AVNLSVSTLPSLRSEEEQVRAHAP  4.98
84. AVNLSVSTLPSLREEEECVRAHAP  4.98
85. AVNLSVSTLPSLMEEEEQVRAHAP  5.03
86. AVNLSVSTLPSLREDEEQVRAHAP  5.05
87. AVNLSVSTLPSLREEEEGVRAHAP  5.17
88. AVNLSVSTLPSLSEEEEQVRAHAP  5.2
89. AVNLSVSTLPSLREEEEDVRAHAP  5.2
90. AVNLSVSTLPSLTEEEEQVRAHAP  5.25
91. AVNLSVSTLPSLREEDEQVRAHAP  5.26
92. AVNLSVSTLPSLNEEEEQVRAHAP  5.3
93. AVNLSVSTLPSLREEEEEVRAHAP  5.57
94. AVNLSVSTLPSLPEEEEQVRAHAP  5.67

Reference: the supplement of paper PMC10567573
